This note sets out measurements from patent publication US20220073608A1 (JIANGSU HUAIYU PHARMACEUTICAL, published 2022).

Positions count from the first letter of the chain named.

For assay [1], the target named is T1, human SEMA4D, full length, on CHO-K1 cells (CHO-K1 hSEMA4D) (human, UniProt Q92854 22-862).
T1 construct: whole, on cells; also called human SEMA4D recombinant cells
T1 sequence (looked up): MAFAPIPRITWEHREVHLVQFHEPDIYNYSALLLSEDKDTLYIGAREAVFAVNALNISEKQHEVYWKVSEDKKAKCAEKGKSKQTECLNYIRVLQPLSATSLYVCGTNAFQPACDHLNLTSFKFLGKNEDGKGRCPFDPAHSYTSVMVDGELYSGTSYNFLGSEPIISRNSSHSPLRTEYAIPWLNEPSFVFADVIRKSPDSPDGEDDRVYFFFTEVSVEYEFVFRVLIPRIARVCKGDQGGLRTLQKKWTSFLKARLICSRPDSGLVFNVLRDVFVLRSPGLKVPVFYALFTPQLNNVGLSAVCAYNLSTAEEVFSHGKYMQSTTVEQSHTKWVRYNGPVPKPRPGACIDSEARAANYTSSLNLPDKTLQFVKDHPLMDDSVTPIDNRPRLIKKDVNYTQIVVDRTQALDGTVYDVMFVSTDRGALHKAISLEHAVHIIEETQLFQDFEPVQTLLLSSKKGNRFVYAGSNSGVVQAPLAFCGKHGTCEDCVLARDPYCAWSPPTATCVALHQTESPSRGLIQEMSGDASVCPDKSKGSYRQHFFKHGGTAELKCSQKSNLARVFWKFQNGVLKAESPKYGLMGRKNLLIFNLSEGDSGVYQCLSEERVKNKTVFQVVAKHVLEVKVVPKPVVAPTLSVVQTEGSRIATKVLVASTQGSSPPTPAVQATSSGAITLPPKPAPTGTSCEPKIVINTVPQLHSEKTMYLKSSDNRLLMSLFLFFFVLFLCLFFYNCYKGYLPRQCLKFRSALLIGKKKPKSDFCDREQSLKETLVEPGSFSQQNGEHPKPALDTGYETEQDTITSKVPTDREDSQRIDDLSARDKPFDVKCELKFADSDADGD
The experiment in a line: FACS, CHO-K1 hSEMA4D cells; Ab 66.7 nM. The procedure: The medium was aspirated, the cells were washed once with PBS buffer (purchased from Invitrogen), and then treated with cell dissociation fluid (TrypLE™ Express Enzyme, purchased from Life technology), and the cells were collected. After the cells counted, the cells were washed once with PBS phosphate buffer, and diluted to 3×10⁶ cells per milliliter, and added to the 96-well FACS reaction plate as 100 μL per well. 2% (w/w) fetal calf serum was added to PBS phosphate buffer as FACS buffer, with which the cells were washed once by centrifugation at 2000 rpm 4° C. 100 μL of diluted and purified leading antibodies was added to each well and the plate was incubated for 1 hour on ice. […] Cells were washed 2 times by centrifugation with FACS buffer. The cells were suspended with 200 μL of FACS buffer, and FACS (FACS Verse, purchased from BD) was used to detect and analyze the results.
A general note: Flow cytometry measures light scatter and fluorescence of single cells or particles in a stream.

Assay [2] has as its target T2, hSEMA4D ECD-His (His-tagged human SEMA4D protein extracellular domain, Met22-Arg734) (human, UniProt Q92854 22-734).
T2 construct: Expressed in CHO-S cells, purified on Ni column; also called protein immunogen; immunogen A; not shown: His tag of the pCP vector
T2 sequence: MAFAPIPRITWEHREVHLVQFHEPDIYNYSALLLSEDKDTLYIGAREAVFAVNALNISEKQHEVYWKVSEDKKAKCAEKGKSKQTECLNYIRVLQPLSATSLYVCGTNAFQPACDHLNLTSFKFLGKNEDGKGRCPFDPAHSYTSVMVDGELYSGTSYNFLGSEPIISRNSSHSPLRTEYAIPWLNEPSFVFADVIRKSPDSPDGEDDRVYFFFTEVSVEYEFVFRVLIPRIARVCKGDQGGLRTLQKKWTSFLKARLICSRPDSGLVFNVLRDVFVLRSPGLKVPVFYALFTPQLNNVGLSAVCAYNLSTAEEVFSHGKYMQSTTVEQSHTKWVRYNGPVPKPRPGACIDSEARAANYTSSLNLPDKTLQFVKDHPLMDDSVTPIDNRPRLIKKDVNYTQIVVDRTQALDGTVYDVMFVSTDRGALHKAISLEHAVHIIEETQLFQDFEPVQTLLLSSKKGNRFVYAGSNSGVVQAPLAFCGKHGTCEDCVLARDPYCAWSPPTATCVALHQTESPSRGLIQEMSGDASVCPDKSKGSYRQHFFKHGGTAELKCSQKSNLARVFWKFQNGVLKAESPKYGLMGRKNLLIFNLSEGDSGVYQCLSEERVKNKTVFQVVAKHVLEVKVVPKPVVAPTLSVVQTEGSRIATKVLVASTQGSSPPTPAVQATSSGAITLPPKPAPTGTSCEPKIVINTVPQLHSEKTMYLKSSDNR
In words: ELISA, coated hSEMA4D ECD-His; Ab 6.67 nM. The procedure: First, hSEMA4D ECD-His was diluted with PBS to a final concentration of 1.0 μg/mL, and then was added to a 96-well ELISA plate, 100 μL per well, sealed with plastic film and incubated overnight at 4° C. On the next day, the plate was washed with a plate washing solution, that is, PBS buffer containing 0.05% (v/v) Tween20, for 4 times, and added with blocking solution, that is, PBS buffer containing 0.05% (v/v) Tween20 and 2% (w/w) BSA, blocked at 37° C. for 1 hour. The blocking solution was poured out and the plate was washed 4 times with the plate washing solution. 100 μL of the purified leading antibodies obtained in Examples 1 and 2 was added to each well. After incubation at 37° C. for 1 hour, the plate was washed 4 times with a plate washing solution. 100 μL of horseradish peroxidase (HRP) labeled secondary antibody (purchased from Sigma) was added at a dilution of 1:10000 to each well, and the plate was incubated at 37° C. for 1 hour, and washed 4 times with a plate washing solution. 100 μL TMB substrate was added to each well, and the plate was incubated at room temperature for 5 minutes, and added with 100 μL stop solution (1.0N HCl) to each well. A microplate reader (SpectraMax M5e, purchased from Molecular Device) was used to read the A450 nm value. […] Wherein, the data in the table was the OD450 nm value.
(In general: An ELISA detects its analyte on a solid surface through an enzyme-linked reagent.)

B1: 32C8F10 (antibody, V domains shown)
VH: EVQLQQSGAELVRPGASVKLSCTASGFNIKDEYIHWVKQRPEQGLEWIGWIDPANGHTEYASRFQAKATITADTSSNTAYLQLSSLTSEDTAVYYCTTGDYDGFAYWGQGTLVTVST
VL: QIVLTQSPAIMSASPGEKVTISCSARSSVSYMYWYQQKPGSSPKPWIYRTSNLASGVPARFSGSGSGTSYSLTISSMEAEDAATYYCQHYHTYPYTFGGGTKLEIK
notes: Mouse monoclonal antibody purified from hybridoma supernatant on protein A
In the case of B1, the MFI in assay [1] was 8760. Further, in assay [2], the OD450 nm was found to be 2.32.

B2: 31G10C5 (antibody, V domains shown)
VH: B1 VH with E32D, T58I, R63N, A105T
VL: B1 VL
notes: as for B1
For the molecule B2, the MFI in assay [1] was 7410. The molecule also returned an OD450 nm in assay [2] of 1.59.

B3: 31C11G2 (antibody, V domains shown)
VH: B1 VH with A105V
VL: B1 VL with S22F
notes: as for B1
Consider B3, for which the MFI in assay [1] is 6750. The molecule also gave an OD450 nm in assay [2] of 1.74.

B4: 37F11F9 (antibody, V domains shown)
VH: EVQLQQSGPVLVKPGASVKMSCKASGYTFTDYYMNWVKQSHGKSLEWIGLINPYSGGSTFNQKFKAKATLTVDKSSSSAYMDLNSLTSEDSAVYYCARVGDGYYGVTHGMDYWGQGTSVTVSS
VL: DIVMTPSQKFMSTTVGDRVSITCKASQNVGTAVAWYQQKPGQSPTILIYSASNRYTGVPDRFTGSGSGTDFTLTISNMKSEDLADYFCQQYYIYPFTFAAGTKLELK
notes: as for B1
In the case of B4, in assay [1], the MFI was 4110. The OD450 nm in assay [2] turned out to be 1.54.

B5: 37C4F7 (antibody, V domains shown)
VH: EFQLQQSGPEVVKPGASVKISCKASGYSFTDYNMNWMKQSKGKSLEWIGVINPNYGTTTYNQNFKGKATLTVDQSSSTAYMQLNSLTSEDSAVYYCARDMYYVYAYYTMDYWGQGTSVTVSS
VL: DVVMTQTPLSLPVSLGDQASISCRSSQSLVHSNGHTYLHWYLQRPGQSPTLLIYKVSNRFSGVPDRFSGSGSGTDFTLKISRVEAEDLGVYFCSQGTHVPWTFGGGTKLEIK
notes: as for B1
Turning to B5, the MFI in assay [1] worked out at 4740. Moreover, the OD450 nm in assay [2] was determined as 1.19.

B6: 38H2E3 (antibody, V domains shown)
VH: B5 VH with N52S, N54D, G66D, R98K, Q114H
VL: B5 VL with F67V, W101R
notes: as for B1
The molecule B6 showed an MFI in assay [1] of 5470. Further, in assay [2], the OD450 nm worked out at 1.46.

B7: 42B7G2 (antibody, V domains shown)
VH: QVQLQQSGAELARPGASVKLSCKASGYTFTDYGISWVKQRTGQGLEWIGEIYLRNDNSYYNEKFKGKATLTADKSSNTAYMELRSLTSEDSAVYFCARWGDHGNNYEDAMDYWGQGTSVTVSS
VL: DIVLTQSPASLAMSLGKRATISCRASESVSIIGSNLIHWYQQKPGQPPKLLIYHASNLETGVPARFSGSGSRTDFTLTIDPVEEDDVAIYYCLQSRKVPYTFGGGTKLEIK
notes: as for B1
Take B7: the MFI in assay [1] was 4120. The same molecule gave an OD450 nm in assay [2] of 2.07.
